Data on seven molecules can be found in patent US20260193335A1 (ZOETIS SERVICES, published 2026).

The target in test [1] is T1, Feline FcRn (complex of FcRn-α subunit and β-microglobulin, C-terminal His tag) (feline, UniProt A0ABI7ZNY9 23-296; Q5MGS7 21-118).
T1 construct: treated here as one molecule
Put plainly: SPR Biacore, FcRn amine-coupled on CM5, pH 7.2. The protocol: (§1) Feline FcRn was isolated, prepared and mutant Fc IgGs were assayed against feline FcRn according to Strietzelg et. al. Standard RACE PCR was used to amplify feline FcRn-α subunit and β-microglobulin. FcRn-α subunit and β-microglobulin were co-transfected into HEK 293 cells and the FcRn complex was purified by IMAC affinity purification via the c-terminal His tag. KD's were measured by Biacore 3000 or Biacore T200 (GE Healthcare, Pittsburgh, PA, USA) using a CM5 sensor chip.
(§2) FcRn was immobilized on the surface of the sensor using the standard amine immobilization method to reach the desired surface density. HBS-EP was used as the immobilization running buffer and 10 mM MES; 150 mM NaCl; 0.005% Tween20; 0.5 mg/mL BSA; pH6 and pH7.2 and PBS; 0.005% Tween20; 0.5 mg/mL BSA; pH7.4 were used for method running buffers and titrations. Fc mutant IgGs were flowed over receptor surfaces and affinity was determined using Scrubber2 software analysis (BioLogic Software Pty, Ltd., Campbell, Australia) or T200 evaluation software (Table 2). Blank runs containing buffer only were subtracted out from all runs. Flow cells were regenerated using 50 mM Tris pH8. Runs were performed at 15° C.

For test [2], the target named is T1, Feline FcRn (complex of FcRn-α subunit …). Put plainly: SPR Biacore, FcRn amine-coupled on CM5, pH 6. The protocol:
as §1, §2

For test [3] the target is unchanged. Put plainly: SPR Biacore, FcRn on sensor, pH 6; pH 6. The protocol:
As discussed in the above Example section, Feline FcRn was isolated, prepared and mutant Fc IgGs were assayed against feline FcRn according to Strietzelg et. al. Standard RACE PCR was used to amplify feline FcRn-α subunit and β-microglobulin. FcRn-α subunit and β-microglobulin were co-transfected into HEK 293 cells and the FcRn complex was purified by IMAC affinity purification via the c-terminal His tag. KD's were measured by Biacore 3000 or Biacore T200 (GE Healthcare, Pittsburgh, PA, USA) using a CM5 sensor chip.
FcRn was captured on the surface of the sensor using a modified SA capture method. 10 mM MES; 150 mM NaCl; 0.005% Tween20; 0.5 mg/mL BSA; pH6 was used as capture, method running buffer and titrations. 1×HBS-P, 0.5 mg/mL BSA; pH7.4 was also used for method running buffer and titrations. Fc mutant IgGs were flowed over receptor surfaces and affinity was determined using T200 evaluation software or Biacore Insight Evaluation software. Blank runs containing buffer only were subtracted out from all runs. Flow cells were regenerated using 50 mM Tris pH8 or pH9. Runs were performed at 15° C.

B1: Anti-NGF antibody of Table 3, S434G (antibody)
heavy: DVQLVESGGDLVKPGGSLRLTCVASGFTYSNYWMHWVRQAPGKGLQWVARIDPYGGGTKHNEKFKRRFTISRDNAKNTLYLQMNSLKTEDTATYYCVRSGYDYYFDVWGQGTLVTVSSASTTAPSVFPLAPSCGTTSGATVALACLVLGYFPEPVTVSWNSGALTSGVHTFPAVLQASGLYSLSSMVTVPSSRWLSDTFTCNVAHPPSNTKVDKTVRKTDHPPGPKPCDCPKCPPPEMLGGPSIFIFPPKPKDTLSISRTPEVTCLVVDLGPDDSDVQITWFVDNTQVYTAKTSPREEQFNSTYRVVSVLPILHQDWLKGKEFKCKVNSKSLPSPIERTISKAKGQPHEPQVYVLPPAQEELSRNKVSVTCLIKSFHPPDIAVEWEITGQPEPENNYRTTPPQLDSDGTYFVYSKLSVDRSHWQRGNTYTCSVSHEALHGHHTQKSLTQSPGK
light: EIQMTQSPSSLSASPGDRVTITCRASENIYSFLAWYQQKPGKVPKLLIYNANTLAEGVPSRFSGSGSGTDFTLTISSLEPEDAATYYCQHHFGTPFTFGSGTKLEIKRSDAQPSVFLFQPSLDELHTGSASIVCILNDFYPKEVNVKWKVDGVVQNKGIQESTTEQNSKDSTYSLSSTLTMSSTEYQSHEKFSCEVTHKSLASTLVKSFQRSECQRE
Take B1: the values for the Kd in test [1] and in test [2] were 21.6 nM and 9.58 nM, respectively.

B2: Anti-NGF antibody of Table 3, S434I (antibody)
heavy: DVQLVESGGDLVKPGGSLRLTCVASGFTYSNYWMHWVRQAPGKGLQWVARIDPYGGGTKHNEKFKRRFTISRDNAKNTLYLQMNSLKTEDTATYYCVRSGYDYYFDVWGQGTLVTVSSASTTAPSVFPLAPSCGTTSGATVALACLVLGYFPEPVTVSWNSGALTSGVHTFPAVLQASGLYSLSSMVTVPSSRWLSDTFTCNVAHPPSNTKVDKTVRKTDHPPGPKPCDCPKCPPPEMLGGPSIFIFPPKPKDTLSISRTPEVTCLVVDLGPDDSDVQITWFVDNTQVYTAKTSPREEQFNSTYRVVSVLPILHQDWLKGKEFKCKVNSKSLPSPIERTISKAKGQPHEPQVYVLPPAQEELSRNKVSVTCLIKSFHPPDIAVEWEITGQPEPENNYRTTPPQLDSDGTYFVYSKLSVDRSHWQRGNTYTCSVSHEALHIHHTQKSLTQSPGK
light: EIQMTQSPSSLSASPGDRVTITCRASENIYSFLAWYQQKPGKVPKLLIYNANTLAEGVPSRFSGSGSGTDFTLTISSLEPEDAATYYCQHHFGTPFTFGSGTKLEIKRSDAQPSVFLFQPSLDELHTGSASIVCILNDFYPKEVNVKWKVDGVVQNKGIQESTTEQNSKDSTYSLSSTLTMSSTEYQSHEKFSCEVTHKSLASTLVKSFQRSECQRE
With B2, the dissociation constant Kd in test [1] was 18.1 nM; in test [2] it was 14.4 nM.

B3: mAb6 anti-TGFβ antibody ZTS-120-6, wildtype (antibody)
heavy: QVLLVQSGADVRKPGASVKIFCKASGYTFSSNVMHWVRQTPAQGFEWMGSVIPIVDIATYARRFQGRLVLTADTSTNTAYMELRSLKSADTAVYYCARTLGLVLDAMDYWGQGSLVTVSSASTTAPSVFPLAPSCGTTSGATVALACLVLGYFPEPVTVSWNSGALTSGVHTFPAVLQASGLYSLSSMVTVPSSRWLSDTFTCNVAHPPSNTKVDKTVRKTDHPPGPKPCDCPKCPPPEMLGGPSIFIFPPKPKDTLSISRTPEVTCLVVDLGPDDSDVQITWFVDNTQVYTAKTSPREEQFNSTYRVVSVLPILHQDWLKGKEFKCKVNSKSLPSPIERTISKAKGQPHEPQVYVLPPAQEELSRNKVSVTCLIKSFHPPDIAVEWEITGQPEPENNYRTTPPQLDSDGTYFVYSKLSVDRSHWQRGNTYTCSVSHEALHSHHTQKSLTQSPGK
light: DIVLTQPPSLSVNLGQTARITCRASQSLGSSYLAWYQQKPGQAPKLVTYGASSRAPGIPDRFSGTNSGITATLTISGARAEDEADYYCQQYADSPITFGQGTKLEIK
notes: also called mAb6 ID No. 22
In test [3], B3 returned a Kd of 14.3 nM.

B4: mAb6 anti-TGFβ antibody ZTS-120-8, wildtype (antibody)
heavy: QVLLVQSGADVRKPGASVKIFCKASGYTFTSNVISWVRQTPAQGFEWMGGVIPIVDIANYAQRFKGRLVLTADTSTNTAYMELRSLKSADTAVYYCASTLGLVLDAMDYWGQGSLVTVSSASTTAPSVFPLAPSCGTTSGATVALACLVLGYFPEPVTVSWNSGALTSGVHTFPAVLQASGLYSLSSMVTVPSSRWLSDTFTCNVAHPPSNTKVDKTVRKTDHPPGPKPCDCPKCPPPEMLGGPSIFIFPPKPKDTLSISRTPEVTCLVVDLGPDDSDVQITWFVDNTQVYTAKTSPREEQFNSTYRVVSVLPILHQDWLKGKEFKCKVNSKSLPSPIERTISKAKGQPHEPQVYVLPPAQEELSRNKVSVTCLIKSFHPPDIAVEWEITGQPEPENNYRTTPPQLDSDGTYFVYSKLSVDRSHWQRGNTYTCSVSHEALHSHHTQKSLTQSPGK
light: DIVMTQSPGSLAGSPGQQVTMNCRASQSLGSSYLAWYQQKPGQHPELLIYGASSRAPGVPDRFSGSGSGTDFTLTISNLQAEDVANYYCQQYADSPITFGQGTKLEIK
notes: also called mAb6 ID No. 26
With B4, in test [3], the Kd came to 35.7 nM.

B5: mAb6 anti-TGFβ antibody ZTS-120-5, wildtype (antibody)
heavy: DVQLVESGGDLVKPGGSLRLTCVASGYTFSSNVMHWVRQAPGKGLQWVAYVIPIVDIAYYADSVKGRFTISIDNSKNTLYLQMNSLKTEDTATYYCARTLGLVLDAMDYWGQGTLVTVSSASTTAPSVFPLAPSCGTTSGATVALACLVLGYFPEPVTVSWNSGALTSGVHTFPAVLQASGLYSLSSMVTVPSSRWLSDTFTCNVAHPPSNTKVDKTVRKTDHPPGPKPCDCPKCPPPEMLGGPSIFIFPPKPKDTLSISRTPEVTCLVVDLGPDDSDVQITWFVDNTQVYTAKTSPREEQFNSTYRVVSVLPILHQDWLKGKEFKCKVNSKSLPSPIERTISKAKGQPHEPQVYVLPPAQEELSRNKVSVTCLIKSFHPPDIAVEWEITGQPEPENNYRTTPPQLDSDGTYFVYSKLSVDRSHWQRGNTYTCSVSHEALHSHHTQKSLTQSPGK
light: EIQMTQSPSSLSASPGDRVTITCRASQSLGSSYLAWYQQKPGKVPKLLIYGASSRAPGVPSRFSGSGSGTDFTLTISSLEPEDAATYYCQQYADSPITFGQGTKLEIK
notes: also called mAb6 ID No. 20
In the case of B5, the Kd in test [3] turned out to be 31.6 nM.

B6: mAb6 anti-TGFβ antibody ZTS-120-7, wildtype (antibody)
heavy: DVQLVESGGDLVKPGGSLRLTCVASGYTFSSNVMHWVRQAPGKGLQWVAYVIPIVDIAYYADSVKGRFTISIDNSKNTLYLQMNSLKTEDTATYYCARTLGLVLDAMDYWGQGTLVTVSSASTTAPSVFPLAPSCGTTSGATVALACLVLGYFPEPVTVSWNSGALTSGVHTFPAVLQASGLYSLSSMVTVPSSRWLSDTFTCNVAHPPSNTKVDKTVRKTDHPPGPKPCDCPKCPPPEMLGGPSIFIFPPKPKDTLSISRTPEVTCLVVDLGPDDSDVQITWFVDNTQVYTAKTSPREEQFNSTYRVVSVLPILHQDWLKGKEFKCKVNSKSLPSPIERTISKAKGQPHEPQVYVLPPAQEELSRNKVSVTCLIKSFHPPDIAVEWEITGQPEPENNYRTTPPQLDSDGTYFVYSKLSVDRSHWQRGNTYTCSVSHEALHSHHTQKSLTQSPGK
light: DIVLTQPPSLSVNLGQTARITCRASQSLGSSYLAWYQQKPGQAPKLVTYGASSRAPGIPDRFSGTNSGITATLTISGARAEDEADYYCQQYADSPITFGQGTKLEIK
notes: also called mAb6 ID No. 24
In the case of B6, the dissociation constant Kd in test [3] is 30.2 nM.

B7: mAb6 anti-TGFβ antibody ZTS-120-9, wildtype (antibody)
heavy: DVQLVESGGDLVKPGGSLRLTCVASGYTFSSNVMHWVRQAPGKGLQWVAYVIPIVDIAYYADSVKGRFTISIDNSKNTLYLQMNSLKTEDTATYYCARTLGLVLDAMDYWGQGTLVTVSSASTTAPSVFPLAPSCGTTSGATVALACLVLGYFPEPVTVSWNSGALTSGVHTFPAVLQASGLYSLSSMVTVPSSRWLSDTFTCNVAHPPSNTKVDKTVRKTDHPPGPKPCDCPKCPPPEMLGGPSIFIFPPKPKDTLSISRTPEVTCLVVDLGPDDSDVQITWFVDNTQVYTAKTSPREEQFNSTYRVVSVLPILHQDWLKGKEFKCKVNSKSLPSPIERTISKAKGQPHEPQVYVLPPAQEELSRNKVSVTCLIKSFHPPDIAVEWEITGQPEPENNYRTTPPQLDSDGTYFVYSKLSVDRSHWQRGNTYTCSVSHEALHSHHTQKSLTQSPGK
light: DIVMTQSPGSLAGSPGQQVTMNCRASQSLGSSYLAWYQQKPGQHPELLIYGASSRAPGVPDRFSGSGSGTDFTLTISNLQAEDVANYYCQQYADSPITFGQGTKLEIK
notes: also called mAb6 ID No. 28
On to B7, for which, in test [3], the affinity, expressed as Kd, was 44.3 nM.
